Test results published in US10077433B2, “Permuted and nonpermuted luciferase biosensors” (PROMEGA CORPORATION, priority 2006, dated 2018).

B1: pBFB399: OpLuc 1-50 / R2betaB / OpLuc 51-169, 20 aa linkers (SEQ ID NO: 192) (protein)
chain: MFTLADFVGDWQQTAGYNQDQVLEQGGLSSLFQALGVSVTPIQKVVLSGENGSSGGSGGSGGGSGGSGGSGMYESFIESLPFLKSLEFSERLKVVDVIGTKVYNDGEQIIAQGDSADSFFIVESGEVKITMKRKGKSEVEENGAVEIARCSRGQYFGELALVTNKPRAASAHAIGTVKCLAMDVQAFERLLGPCMEIMKRNIATYEEQLVALFGTNMDIVGSGGSGGSGGTSGGSGGSSGGLKADIHVIIPYEGLSGFQMGLIEMIFKVVYPVDDHHFKIILHYGTLVIDGVTPNMIDYFGRPYPGIAVFDGKQITVTGTLWNGNKIYDERLINPDGSLLFRVTINGVTGWRLCENILA
B2: pBFB398: Met-(OpLuc 1-50)-GSSGGSGGSG-R2betaB-GSSGGSGGSG-(OpLuc 51-169) (protein)
chain: MFTLADFVGDWQQTAGYNQDQVLEQGGLSSLFQALGVSVTPIQKVVLSGENGSSGGSGGSGMYESFIESLPFLKSLEFSERLKVVDVIGTKVYNDGEQIIAQGDSADSFFIVESGEVKITMKRKGKSEVEENGAVEIARCSRGQYFGELALVTNKPRAASAHAIGTVKCLAMDVQAFERLLGPCMEIMKRNIATYEEQLVALFGTNMDIVGSSGGSGGSGGLKADIHVIIPYEGLSGFQMGLIEMIFKVVYPVDDHHFKIILHYGTLVIDGVTPNMIDYFGRPYPGIAVFDGKQITVTGTLWNGNKIYDERLINPDGSLLFRVTINGVTGWRLCENILA
B3: pBFB402: OpLuc 1-84 / R2betaB / OpLuc 85-169, 20 aa linkers (SEQ ID NO: 195) (protein)
chain: MFTLADFVGDWQQTAGYNQDQVLEQGGLSSLFQALGVSVTPIQKVVLSGENGLKADIHVIIPYEGLSGFQMGLIEMIFKVVYPVDGSSGGSGGSGGGSGGSGGSGMYESFIESLPFLKSLEFSERLKVVDVIGTKVYNDGEQIIAQGDSADSFFIVESGEVKITMKRKGKSEVEENGAVEIARCSRGQYFGELALVTNKPRAASAHAIGTVKCLAMDVQAFERLLGPCMEIMKRNIATYEEQLVALFGTNMDIVGSGGSGGSGGTSGGSGGSSGDHHFKIILHYGTLVIDGVTPNMIDYFGRPYPGIAVFDGKQITVTGTLWNGNKIYDERLINPDGSLLFRVTINGVTGWRLCENILA
B4: pBFB232: CPM hRL 92-311/3-91 with GAF A domain from Trypanosoma brucei PDE (SEQ ID NO:185) (protein)
chain: MYRLLDHYKYLTAWFELLNLPKKIIFVGHDWGACLAFHYSYEHQDKIKAIVHAESVVDVIESWDEWPDIEEDIALIKSEEGEKMVLENNFFVETMLPSKIMRKLEPEEFAAYLEPFKEKGEVRRPTLSWPREIPLVKGGKPDVVQIVRNYNAYLRASDDLPKMFIESDPGFFSNAIVEGAKKFPNTEFVKVKGLHFSQEDAPDEMGKYIKSFVERVLKNEQGSSGGSGGSGGGSGGSGGSGSIMNTVKSLTESARCSLFLVRGDVLEAHFEDGNVVTIPRGAGIAGYVAQTGETVNIVDAYADDRFNREVDKATGYRTKTILCMPVMYEGTIVAVAQLINKLDLTTESGLRLPRVFGKRDEELFQTFSMFAGASLRGSGGSGGSGGTSGGSGGSSGASKVYDPEQRKRMITGPQWWARCKQMNVLDSFINYYDSEKHAENAVIFLHGNAASSYLWRHVVPHIEPVARCIIPDLIGMGKSGKSGNGSV
B5: pBFB401: Met-(OpLuc 1-84)-GSSGGSGGSG-R2betaB-GSSGGSGGSG-(OpLuc 85-169) (protein)
chain: MFTLADFVGDWQQTAGYNQDQVLEQGGLSSLFQALGVSVTPIQKVVLSGENGLKADIHVIIPYEGLSGFQMGLIEMIFKVVYPVDGSSGGSGGSGMYESFIESLPFLKSLEFSERLKVVDVIGTKVYNDGEQIIAQGDSADSFFIVESGEVKITMKRKGKSEVEENGAVEIARCSRGQYFGELALVTNKPRAASAHAIGTVKCLAMDVQAFERLLGPCMEIMKRNIATYEEQLVALFGTNMDIVGSSGGSGGSGDHHFKIILHYGTLVIDGVTPNMIDYFGRPYPGIAVFDGKQITVTGTLWNGNKIYDERLINPDGSLLFRVTINGVTGWRLCENILA
B6: pBFB400: Met-(OpLuc 1-84)-GSTG-R2betaB-GSSG-(OpLuc 85-169) (protein)
chain: MFTLADFVGDWQQTAGYNQDQVLEQGGLSSLFQALGVSVTPIQKVVLSGENGLKADIHVIIPYEGLSGFQMGLIEMIFKVVYPVDGSTGMYESFIESLPFLKSLEFSERLKVVDVIGTKVYNDGEQIIAQGDSADSFFIVESGEVKITMKRKGKSEVEENGAVEIARCSRGQYFGELALVTNKPRAASAHAIGTVKCLAMDVQAFERLLGPCMEIMKRNIATYEEQLVALFGTNMDIVGSSGDHHFKIILHYGTLVIDGVTPNMIDYFGRPYPGIAVFDGKQITVTGTLWNGNKIYDERLINPDGSLLFRVTINGVTGWRLCENILA

Columns and labels:
[1] = test system: intracellular cAMP concentration, HEK 293 cells; assay: Intracellular cAMP changes in HEK293 cells with CPM-hRL Luc/RIIβB biosensors (isopreterenol, propranolol, forskolin); type: cell-based
Experimental: Cells were cultured in 2 mL DMEM/F12 with HEPES buffer (Invitrogen) and 10% FBS at 37° C. with 5% CO2 in a 6 well plate. Three of the constructs described in Example XVII were used to detect intracellular changes of cAMP concentrations. The constructs used were: pBFB277, pBFB279 and pBFB287. HEK293 cells stably expressing CPM91-hRL/RIIβB (ORF derived from 201325.44.H6 were also used in these experiments. HEK293 cells were transfected with TransIt®-LT1 Reagent (MIRUS) using 6 μL TransIt®-LT1 reagent and 2 μg DNA (pBFB277, pBFB279 and pBFB287) per well of a 6 well plate. Cells were allowed to grow overnight and were assayed the next day. Approximately 1 day after transfection, cells were trypsinized, resuspended in fresh DMEM/F12 with HEPES buffer (Invitrogen) with 1% FBS and plated in a 96 well plate at approximately 10,000 cells per well. Alternatively, a HEK293 cell line stably expressing CP91-hRL/RIIβB was plated in a 96 well plate at approximately 10,000 cells per well. A 10 μL aliquot of 600 μM EnduRen was added to a total of 100 μL of cell culture to give a final concentration of approximately […]. Cells were then incubated at 37° C. with 5% CO2. After 5 hours, the plate was removed from the incubator and allowed to cool to room temperature for at least 20 minutes. After 20 minutes, baseline measurements of luminescence were measured using a 96 well Veritas Luminometer (Turner Biosystems; integration time of 0.5 seconds per well). Cells were then induced with 10 μM isopreterenol (CalBiochem), 50 μM forskolin (Sigma) or not induced (0.1% DMSO, Sigma) and luminescence was measured continuously for about 30 minutes. After 30 minutes, 10 μM propranolol (Sigma) was added to cells already induced with isopreterenol and 0.1% DMSO was added to all other samples. Luminescence was then measured continuously for the next 30 minutes. A final addition of 50 μM forskolin was added to the isopreterenol/propranolol sample and 0.1% DMSO was added to all other samples. Luminescence was then measured continuously for the next half hour. Samples were measured in sets of 4-6 replicates. 10× stocks of isopreterenol, propranolol, forskolin and DMSO were made in DMEM/F12 with HEPES buffer (Invitrogen) and 1% FBS.

[2] = test system: intracellular cAMP concentration, HEK 293 cells; assay: Intracellular cAMP changes in HEK 293 cells transiently transfected with CPM-FF Luc/RIIβB (pBFB141); type: cell-based
Experimental: Cells were cultured in 60 ml in DMEM/F12 with HEPES buffer (Invitrogen) with 10% FBS at 37° C. with 5% CO2.
The ORF encoding the CPM-FF Luc/RIIβB based cAMP biosensor with X/Y linker lengths of (X=10, Y=0) was transferred to Flexi vector pF4K (Flexi vector system; Promega Corp.). The resultant plasmid construct (pBFB141) utilizes an upstream CMV promoter for expression of the associated cAMP biosensor in mammalian cells.
Cells were transfected with TransIt®-LT1 Reagent (MIRUS) using 0.3 μl TransIt®-LT1 reagent and 0.15 μg DNA per well of a 96 well plate. Cells were allowed to grow overnight and were assayed the next day.
Approximately 1 day after transfection, cells were removed from the incubator and equilibrated to room temperature. A 5 μl aliquot of 100 mM Luciferin EF was added to a total of 90 μl of cell culture plus transfection reagent to give a final concentration of approximately 5 mM luciferin. Cells were then incubated at room temperature for at least 90 minutes. After 90 minutes at room temperature, baseline measurements of luminescence were measured using a 96 well Veritas Luminometer (Turner Biosystems; integration time of 0.5 seconds per well). Cells were then induced with 10 μM isopreterenol (CalBiochem), 50 mM forskolin (Sigma) or not induced (0.1% DMSO, Sigma) and luminescence was measured continuously for about 30 minutes. After 30 minutes, […] (Sigma) was added to cells with isopreterenol and 0.1% DMSO was added to all other samples. Luminescence was then measured continuously for the next 30 minutes. A final addition of 50 μM forskolin was added to the isopreterenol/propranolol sample and 0.1% DMSO was added to all other samples. Luminescence was then measured continuously for the next half hour. Samples were measured in sets of 12 replicates. 10× stocks of isopreterenol, propranolol, forskolin and DMSO were made in 1×PBS (Invitrogen).

[3] = test system: cyclic AMP dependent protein kinase catalytic subunit; conditions: cited from earlier work
[4] = Nonpermuted Oplophorus luciferase/RIIβB insertion constructs, luminescence with or without exogenous cAMP; type: biochemical; conditions: for luminescence, + exogenous cAMP: addition of exogenous cAMP to 50 μM final concentration; for luminescence, − no exogenous cAMP: no exogenous cAMP was added
Experimental: Protein was expressed from these constructs using the TnT T7 Coupled Reticulocyte Lysate System. Following expression, 9 μL of TNT reaction was mixed with 1 μL 1 mM cAMP stock or H2O, and the reactions were allowed to incubate at room temperature for approximately 15 minutes. Following incubation, 10 μL of 2× buffer (300 mM HEPES, pH=8.0, 200 mM thiourea) was added to each reaction, and luminescence was measured from the resulting 20 μL of solution following addition of 100 μL of Renilla Assay Reagent using a Turner 20/20N luminometer (1 second integration time).

[5] = CPM hRL / GAF A domain biosensor, luminescence with or without exogenous cAMP (reticulocyte lysate); type: biochemical
Experimental: An additional type of cAMP biosensor was constructed using a circularly permuted Renilla luciferase (hRL) and a GAF domain. The plasmid DNA construct encoding the following fusion protein: Met-(hRL 92-311)-[…]-(GAF A domain from Trypanosoma brucei PDE; Genbank AF192755 amino acids 241-375)-[…]-A-(hRL 3-91)-Val (SEQ ID NO:185) [clone pBFB232]. Following expression using the T7 Coupled Reticulocyte Lysate System, luminescence activity was measured in the presence or absence of exogenous cAMP. In the presence of cAMP, the measured activity was 7595 RLU; in the absence of cAMP, the measured activity was 298 RLU (about a 25 fold change). […] This type of reagent may allow the monitoring of changes in cAMP concentration in living cells, and it also may provide distinct advantages over existing FRET-based cAMP biosensors in that assay format. Moreover, since the GAF domain is a highly conserved fold in nature responsible for binding a wide range of molecules, it is likely that additional types of CPM hRL biosensors could be made using this fold.

| Molecule | luminescence, + exogenous cAMP [4] | luminescence, − no exogenous cAMP [4] | also measured |
| --- | --- | --- | --- |
| CC(C)NCC(O)c1ccc(O)c(O)c1 (stereo not shown) [isopreterenol] |  |  | increase in light output ([1]; HEK293 cells stably expressing CPM91-hRL/RIIβB, isopreterenol and forskolin treatment): about 5 fold; increase in light output from transfected cells ([1]; HEK 293 transiently transfected with CPM-hRL Luc/RIIβB (X=4, Y=20) constructs, 10 μM isopreterenol or 50 μM forskolin alone): approximately 2 fold; increase in light output from transfected cells ([2]; HEK 293 cells, pBFB141, 10 μM isopreterenol or 50 mM forskolin (so in the source), treatment alone, room temperature): approximately 2 fold |
| LRRASLG |  |  | decrease in activity on phosphorylation by cyclic AMP dependent protein kinase [3]: 30% |
| RRFS: Photinus pyralis luciferase V217R mutant with site RRFS (SEQ ID NO:117), Sala-Newby et al. |  |  | decrease in activity on phosphorylation by cyclic AMP dependent protein kinase [3]: up to 80% |
| Wild type luciferase: wild type (firefly) luciferase control |  |  | response to known modulators of intracellular cAMP concentration ([2]; control constructs in HEK 293 cells): no specific response |
| B1 | 38,051 | 356 |  |
| B2 | 4,917 | 291 |  |
| B3 | 62,264 | 8,568 |  |
| B4 |  |  | measured activity in the presence of cAMP ([5]; exogenous cAMP): 7595 RLU; measured activity in the absence of cAMP ([5]; no cAMP): 298 RLU; fold change with cAMP ([5]; presence vs absence of cAMP): ~25 fold |
| B5 | 6,124 | 2,304 |  |
| B6 | 10,369 | 6,387 |  |
